Data on one molecule can be found in patent US20250388666A1 (BRIGHAM AND WOMEN S HOSPITAL, published 2025).

For this assay, the target named is T1, CEACAM3 (Sino Biological) (human, UniProt P40198 35-155, limits assumed).
T1 construct: also called hCEACAM3
T1 sequence (looked up): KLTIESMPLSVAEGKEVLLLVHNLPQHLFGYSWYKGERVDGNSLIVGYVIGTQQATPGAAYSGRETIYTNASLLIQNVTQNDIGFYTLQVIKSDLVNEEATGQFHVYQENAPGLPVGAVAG
Put plainly: binding ELISA on plate-coated CEACAM (0.5 µg/mL); antibody at 1.67, 0.062 and 0.0069 µg/mL; signal as % of parent IgG on CEACAM1 at 1.67 µg/mL on the same plate.

B1: VH2 N56Q/Vκ4 S27(f)A IgG (antibody, V domains shown)
VH: EVQLLESGGGLVQPGGSLRLSCAASGFSFSDYYLYWVRQAPGKGLEWVATISVGGGQTSYADSVKGRFTISRDNSKNTLYLQMNSLRAEDTAMYYCTRGLYYGPAWFAYWGQGTLVTVSS
VL: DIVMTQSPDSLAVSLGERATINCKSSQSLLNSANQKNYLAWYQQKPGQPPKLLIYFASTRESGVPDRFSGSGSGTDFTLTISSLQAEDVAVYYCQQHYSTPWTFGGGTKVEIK
notes: IgG4 S241P, kappa; also called Parent; Parent IgG
Take B1: the binding result is listed as “no binding (tested: 1.67 µg/mL)”.
